Experimental data: PMC11019291

Molecular target: SARS-CoV-2 nucleocapsid protein (N protein) (SARS-CoV-2, UniProt P0DTC9)
Assay: SERS (surface-immobilized aptamer)
Conditions: protein: recombinant; tags: C-terminal His6 (pET26); N-terminal PelB signal and vector residues

Does AAAAACGCGCGTATTCCTTAGGGGCACCGCTACACGCGCG (ssDNA, 5'-thiol) [anti-N DNA aptamer] bind?
Result: binds
